Target: Q338H MBP–MUTYH (human)
Test: pull-down

Row | percent reduction of HUS1 associated, against wild-type MUTYH [%] | percent reduction of RAD9 associated, against wild-type MUTYH [%] | percent reduction of RAD9 bound, against wild-type MUTYH [%] | Binder
1 | 80 | > 50 | – | RAD9:RAD1:HUS1 (9–1–1) complex, endogenous in HeLa nuclear extract (complex) chain 1: MKCLVTGGNVKVLGKAVHSLSRIGDELYLEPLEDGLSLRTVNSSRSAYACFLFAPLFFQQYQAATPGQDLLRCKILMKSFLSVFRSLAMLEKTVEKCCISLNGRSSRLVVQLHCKFGVRKTHNLSFQDCESLQAVFDPASCPHMLRAPARVLGEAVLPFSPALAEVTLGIGRGRRVILRSYHEEEADSTAKAMVTEMCLGEEDFQQLQAQEGVAITFCLKEFRGLLSFAESANLNLSIHFDAPGRPAIFTIKDSLLDGHFVLATLSDTDSHSQDLGSPERHQPVPQLQAHSTPHPDDFANDDIDSYMIAMETTIGNEGSRVLPSISLSPGPQPPKSPGPHSEEEDEAEPSTVPGTPPPKKFRSLFFGSILAPVRSPQGPSPVLAEDSEGEG chain 2: MPLLTQQIQDEDDQYSLVASLDNVRNLSTILKAIHFREHATCFATKNGIKVTVENAKCVQANAFIQAGIFQEFKVQEESVTFRINLTVLLDCLSIFGSSPMPGTLTALRMCYQGYGYPLMLFLEEGGVVTVCKINTQEPEETLDFDFCSTNVINKIILQSEGLREAFSELDMTSEVLQITMSPDKPYFRLSTFGNAGSSHLDYPKDSDLMEAFHCNQTQVNRYKISLLKPSTKALVLSCKVSIRTDNRGFLSLQYMIRNEDGQICFVEYYCCPDEEVPESES chain 3: MKFRAKIVDGACLNHFTRISNMIAKLAKTCTLRISPDKLNFILCDKLANGGVSMWCELEQENFFNEFQMEGVSAENNEIYLELTSENLSRALKTAQNARALKIKLTNKHFPCLTVSVELLSMSSSSRIVTHDIPIKVIPRKLWKDLQEPVVPDPDVSIYLPVLKTMKSVVEKMKNISNHLVIEANLDGELNLKIETELVCVTTHFKDLGNPPLASESTHEDRNVEHMAEVHIDIRKLLQFLAGQQVNPTKALCNIVNNKMVHFDLLHEDVSLQYFIPALS
2 | – | – | 50 | purified recombinant RAD9:RAD1:HUS1 (9–1–1) complex (complex) chain 1: MKCLVTGGNVKVLGKAVHSLSRIGDELYLEPLEDGLSLRTVNSSRSAYACFLFAPLFFQQYQAATPGQDLLRCKILMKSFLSVFRSLAMLEKTVEKCCISLNGRSSRLVVQLHCKFGVRKTHNLSFQDCESLQAVFDPASCPHMLRAPARVLGEAVLPFSPALAEVTLGIGRGRRVILRSYHEEEADSTAKAMVTEMCLGEEDFQQLQAQEGVAITFCLKEFRGLLSFAESANLNLSIHFDAPGRPAIFTIKDSLLDGHFVLATLSDTDSHSQDLGSPERHQPVPQLQAHSTPHPDDFANDDIDSYMIAMETTIGNEGSRVLPSISLSPGPQPPKSPGPHSEEEDEAEPSTVPGTPPPKKFRSLFFGSILAPVRSPQGPSPVLAEDSEGEG chain 2: MPLLTQQIQDEDDQYSLVASLDNVRNLSTILKAIHFREHATCFATKNGIKVTVENAKCVQANAFIQAGIFQEFKVQEESVTFRINLTVLLDCLSIFGSSPMPGTLTALRMCYQGYGYPLMLFLEEGGVVTVCKINTQEPEETLDFDFCSTNVINKIILQSEGLREAFSELDMTSEVLQITMSPDKPYFRLSTFGNAGSSHLDYPKDSDLMEAFHCNQTQVNRYKISLLKPSTKALVLSCKVSIRTDNRGFLSLQYMIRNEDGQICFVEYYCCPDEEVPESES chain 3: MKFRAKIVDGACLNHFTRISNMIAKLAKTCTLRISPDKLNFILCDKLANGGVSMWCELEQENFFNEFQMEGVSAENNEIYLELTSENLSRALKTAQNARALKIKLTNKHFPCLTVSVELLSMSSSSRIVTHDIPIKVIPRKLWKDLQEPVVPDPDVSIYLPVLKTMKSVVEKMKNISNHLVIEANLDGELNLKIETELVCVTTHFKDLGNPPLASESTHEDRNVEHMAEVHIDIRKLLQFLAGQQVNPTKALCNIVNNKMVHFDLLHEDVSLQYFIPALS

— paper PMC3627602
